In test [1] the target is T1, rHuman P-Cadherin/Fc Chimera, CF (R&D Systems Cat#861-PC) (human, UniProt P22223 108-654).
T1 construct: Bought Fc chimera; also called CDH3; Fc part of the bought chimera not given
Kind of test: ECL (MSD Multi-Spot) binding assay, antigen spotted on plate; Fab 7.5 nM; blank spot 217.

Test [2] addresses T2, rHuman Erythropoietin R/Fc Chimera, CF (R&D Systems Cat#963-ER) (human, UniProt P19235 25-250).
T2 construct: Bought Fc chimera; also called EPO R/Fc; Epo R; Fc part of the bought chimera not given
T2 sequence: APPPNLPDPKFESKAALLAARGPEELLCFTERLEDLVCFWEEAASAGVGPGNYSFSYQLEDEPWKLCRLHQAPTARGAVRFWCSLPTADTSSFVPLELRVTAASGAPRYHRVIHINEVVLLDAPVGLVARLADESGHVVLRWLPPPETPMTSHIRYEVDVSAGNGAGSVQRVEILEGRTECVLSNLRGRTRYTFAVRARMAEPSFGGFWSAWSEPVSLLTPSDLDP
Described as above.

The target of test [3] is T3, rHuman CD44/Fc Chimera, CF (R&D Systems Cat#3660-CD) (human, UniProt P16070 21-220).
T3 construct: Bought Fc chimera; Fc part of the bought chimera not given
The description is as above.

For test [4], the target named is T4, rHuman Erythropoietin R/Fc Chimera, CF (R&D Systems Cat#963-ER) (human, UniProt P19235 25-250).
T4 construct: Bought Fc chimera; also called EPO R/Fc; erythropoietin receptor; Fc part of the bought chimera not given
T4 sequence: T2 sequence
Kind of test: ECL (MSD Multi-Spot) binding, antigen spotted on plate; Fab 50 nM.

For test [5], the target named is T5, rHuman HGF R/c-MET/Fc Chimera, CF (R&D Systems Cat#358-MT/CF) (human, UniProt P08581 25-932).
T5 construct: Bought Fc chimera; also called HGF R/Fc; hepatocyte growth factor receptor; Fc part of the bought chimera not given
The test is described as above.

The target of test [6] is T6, rHuman EGF R/Fc Chimera, CF (R&D Systems Cat#344-ER) (human, UniProt P00533 25-645).
T6 construct: Bought Fc chimera; also called epidermal growth factor receptor; Fc part of the bought chimera not given
The description is as above.

Test [7] concerns the target T7, rHuman ErbB2/Fc Chimera, CF (R&D Systems Cat#1129-ER) (human, UniProt P04626 23-652).
T7 construct: Bought Fc chimera; also called human epidermal growth factor 2 receptor; HER2/neu; Fc part of the bought chimera not given
The test is described as above.

The target in test [8] is T8, rHuman Notch-1/Fc Chimera, CF (R&D Systems Cat#3647-TK) (human, UniProt P46531 19-526).
T8 construct: Bought Fc chimera; Fc part of the bought chimera not given
The description is as above.

The target of test [9] is T9, rHuman IGF-1 sR, CF (R&D Systems Cat#391-GR) (human, UniProt P08069 31-932).
T9 construct: Bought soluble receptor; also called insulin-like growth factor-1 soluble receptor; IGF-R1
The test is described as above.

Test [10] concerns the target T10, Recombinant Human DLL4 (R&D Systems Cat#1506-D4/CF) (human, UniProt Q9NR61 27-524).
T10 construct: Bought recombinant protein; also called delta-like protein 4
The description is as above.

Test [11] addresses T11, rHuman P-Cadherin/Fc Chimera, CF (R&D Systems Cat#861-PC) (human, UniProt P22223 108-654).
T11 construct: Bought Fc chimera; Fc part of the bought chimera not given
Described as above.

For test [12], the target named is T12, rHuman CD44/Fc Chimera, CF (R&D Systems Cat#3660-CD) (human, UniProt P16070 21-220).
T12 construct: Bought Fc chimera; Fc part of the bought chimera not given
The test is described as above.

For test [13], the target named is T13, rHuman ErbB2/Fc Chimera, CF (R&D Systems Cat#1129-ER) (human, UniProt P04626 23-652).
T13 construct: Bought Fc chimera; also called HER2/neu; human epidermal growth factor 2 receptor; Fc part of the bought chimera not given
Kind of test: ECL (MSD Multi-Spot) binding assay, antigen spotted on plate; Fab 17 nM; blank spot 143.

Test [14] deals with T2, rHuman Erythropoietin R/Fc Chimera, CF …. Described as above.
In test [15] the target is T3, rHuman CD44/Fc Chimera, CF (R&D Systems …). Described as above.
The target of test [16] is T14, rHuman Notch-1/Fc Chimera, CF (R&D Systems Cat#3647-TK) (human, UniProt P46531 19-526).
T14 construct: Bought Fc chimera; Fc part of the bought chimera not given
Described as above.

Test [17] deals with T15, rHuman IGF-1 sR (IGF-1 sR), CF (R&D Systems Cat#391-GR) (human, UniProt P08069 31-932).
T15 construct: Bought soluble receptor; also called insulin-like growth factor-1 soluble receptor; IGF-R1
Described as above.

For test [18], the target named is T16, rHuman EGF R/Fc Chimera, CF (R&D Systems Cat#344-ER) (human, UniProt P00533 25-645).
T16 construct: Bought Fc chimera; also called epidermal growth factor receptor; Fc part of the bought chimera not given
The test is described as above.

Test [19] addresses T17, Recombinant Human DLL4 (R&D Systems Cat#1506-D4/CF) (human, UniProt Q9NR61 27-524).
T17 construct: Bought recombinant protein; also called delta-like protein 4; rHuman DLL4
The test is described as above.
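Further: blank spot per well as comparator with Hit at signal to blank ratio of 4 or more.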

B1: Fab VH6-1_IGHD3-3*01_IGHJ4*01 & V4-3_IGLJ4*01 (Fab, V domains shown)
VH: QVQLQQSGPGLVKPSQTLSLTCAISGDSVSSNSAAWNWIRQSPSRGLEWLGRTYYRSKWYNDYAVSVKSRITINPDTSKNQFSLQLNSVTPEDTAVYYCAREYYDFWSGYYTDYFDYWGQGTLVTVSS
VL: QPVLTQPTSLSASPGASARLTCTLRSGINLGSYRIFWYQQKPESPPRYLLSYYSDSSKHQGSGVPSRFSGSKDASSNAGILVISGLQSEDEADYYCMIWHSSASFVFGGGTQLIIL
notes: Tested as a Fab made in E. coli; also called IGHV6-1*01
With B1, the values for the ECL signal in test [1], in [2] and in [3] were 352, 443 and 444, respectively.

B2: Fab VH1-46_IGHD6-6*01_IGHJ1*01_S102A_S103P_S104F_H111Y & L6_IGKJ1*01 (Fab, V domains shown)
VH: QVQLVQSGAEVKKPGASVKVSCKASGYTFTSYYMHWVRQAPGQGLEWMGIINPSGGSTSYAQKFQGRVTMTRDTSTSTVYMELSSLRSEDTAVYYCAREEYAPFSAEYFQYWGQGTLVTVSS
VL: not shown
notes: Fab made in E. coli; The heavy chain also carries the CH1 with Flag and His tags of Plasmid A, and the light chain the kappa constant region of Plasmid C
B2: the ECL signal in test [4] was 631; in test [5] it was 325; in test [6], 523; in [7], 589; in [8], 475; in test [9], 460. The figures for the ECL signal in [10], in [11] and in test [12] were 207000, 626 and 433, respectively.

B3: Fab VH5-51_IGHD5-18*01>3_IGHJ4*01 & V3-4_IGLJ1*01 (Fab, V domains shown)
VH: EVQLVQSGAEVKKPGESLKISCKGSGYSFTSYWIGWVRQMPGKGLEWMGIIYPGDSDTRYSPSFQGQVTISADKSISTAYLQWSSLKASDTAMYYCARRGYSYGYDYFDYWGQGTLVTVSS
VL: QTVVTQEPSFSVSPGGTVTLTCGLSSGSVSTSYYPSWYQQTPGQAPRTLIYSTNTRSSGVPDRFSGSILGNKAALTITGAQADDESDYYCVLYMGSGISYVFGTGTKVTVL
notes: Tested as a Fab made in E. coli; also called IGHV5-51*03
In the case of B3, the ECL signal in test [13] was 1030; in [14] it was 620; in test [15] it was 518; in [16] it was 558; in [17], 872; in test [18], 805. Further, the ECL signal in [19] came to 7160.

For the origin of these results see patent publication US20120058906A1 (published 2012).
